Laboratory results taken from publication PMC8298264, “Function of cofactor Akirin2 in the regulation of gene expression in model human neutrophil-like HL60 cells” (Bioscience Reports, 2021).

Test system: human HL60 cells
Experiment: SWATH-MS proteomics, differential protein representation, akirin2 KO vs WT HL60 cells
Assay type: cell-based
Details: akirin2 KO vs WT HL60 cells
Outline: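 Differential representation compares akirin2 KO with WT HL60 across three biological replicates, 5 µg digest each, acquired by data-independent SWATH on a 120-min gradient. Library built from combined IDA runs searched with Paragon; proteins accepted at 1% FDR, with total-area-sum normalization.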

[1] = sheet "Under-represented in KO"
[2] = SWATH-MS, under-represented in KO

Molecule	Fold Change [1]	Log (Fold Change) [1]	Fold Change [2]	Log (Fold Change) [2]
sp¦P23634¦AT2B4_HUMAN (protein, UniProt P23634 1-1241, looked up) Plasma membrane …: MTNPSDRVLPANSMAESREGDFGCTVMELRKLMELRSRDALTQINVHYGGVQNLCSRLKTSPVEGLSGNPADLEKRRQVFGHNVIPPKKPKTFLELVWEALQDVTLIILEIAAIISLVLSFYRPAGEENELCGQVATTPEDENEAQAGWIEGAAILFSVIIVVLVTAFNDWSKEKQFRGLQCRIEQEQKFSIIRNGQLIQLPVAEIVVGDIAQVKYGDLLPADGILIQGNDLKIDESSLTGESDHVKKSLDKDPMLLSGTHVMEGSGRMVVTAVGVNSQTGIILTLLGVNEDDEGEKKKKGKKQGVPENRNKAKTQDGVALEIQPLNSQEGIDNEEKDKKAVKVPKKEKSVLQGKLTRLAVQIGKAGLLMSALTVFILILYFVIDNFVINRRPWLPECTPIYIQYFVKFFIIGITVLVVAVPEGLPLAVTISLAYSVKKMMKDNNLVRHLDACETMGNATAICSDKTGTLTMNRMTVVQAYIGGIHYRQIPSPDVFLPKVLDLIVNGISINSAYTSKILPPEKEGGLPRQVGNKTECALLGFVTDLKQDYQAVRNEVPEEKLYKVYTFNSVRKSMSTVIRNPNGGFRMYSKGASEIILRKCNRILDRKGEAVPFKNKDRDDMVRTVIEPMACDGLRTICIAYRDFDDTEPSWDNENEILTELTCIAVVGIEDPVRPEVPDAIAKCKQAGITVRMVTGDNINTARAIATKCGILTPGDDFLCLEGKEFNRLIRNEKGEVEQEKLDKIWPKLRVLARSSPTDKHTLVKGIIDSTVGEHRQVVAVTGDGTNDGPALKKADVGFAMGIAGTDVAKEASDIILTDDNFTSIVKAVMWGRNVYDSISKFLQFQLTVNVVAVIVAFTGACITQDSPLKAVQMLWVNLIMDTFASLALATEPPTESLLKRRPYGRNKPLISRTMMKNILGHAFYQLIVIFILVFAGEKFFDIDSGRKAPLHSPPSQHYTIVFNTFVLMQLFNEINSRKIHGEKNVFSGIYRNIIFCSVVLGTFICQIFIVEFGGKPFSCTSLSLSQWLWCLFIGIGELLWGQFISAIPTRSLKFLKEAGHGTTKEEITKDAEGLDEIDHAEMELRRGQILWFRGLNRIQTQIDVINTFQTGASFKGVLRRQNMGQHLDVKLVPSSSYIKVVKAFHSSLHESIQKPYNQKSIHSFMTHPEFAIEEELPRTPLLDEEEEENPDKASKFGTRVLLLDGEVTPYANTNNNAVDCNQVQLPQSDSSLQSLETSV	0.3316	-0.4794	–	–
sp¦Q92990¦GLMN_HUMAN (protein, UniProt Q92990 2-594, looked up) Glomulin: AVEELQSIIKRCQILEEQDFKEEDFGLFQLAGQRCIEEGHTDQLLEIIQNEKNKVIIKNMGWNLVGPVVRCLLCKDKEDSKRKVYFLIFDLLVKLCNPKELLLGLLELIEEPSGKQISQSILLLLQPLQTVIQKLHNKAYSIGLALSTLWNQLSLLPVPYSKEQIQMDDYGLCQCCKALIEFTKPFVEEVIDNKENSLENEKLKDELLKFCFKSLKCPLLTAQFFEQSEEGGNDPFRYFASEIIGFLSAIGHPFPKMIFNHGRKKRTWNYLEFEEEENKQLADSMASLAYLVFVQGIHIDQLPMVLSPLYLLQFNMGHIEVFLQRTEESVISKGLELLENSLLRIEDNSLLYQYLEIKSFLTVPQGLVKVMTLCPIETLRKKSLAMLQLYINKLDSQGKYTLFRCLLNTSNHSGVEAFIIQNIKNQIDMSLKRTRNNKWFTGPQLISLLDLVLFLPEGAETDLLQNSDRIMASLNLLRYLVIKDNENDNQTGLWTELGNIENNFLKPLHIGLNMSKAHYEAEIKNSQEAQKSKDLCSITVSGEEIPNMPPEMQLKVLHSALFTFDLIESVLARVEELIEIKTKSTSEENIGIK	0.3264	-0.4863	–	–
sp¦P33176¦KINH_HUMAN (protein, UniProt P33176 2-963, looked up) Kinesin-1 heavy chain: ADLAECNIKVMCRFRPLNESEVNRGDKYIAKFQGEDTVVIASKPYAFDRVFQSSTSQEQVYNDCAKKIVKDVLEGYNGTIFAYGQTSSGKTHTMEGKLHDPEGMGIIPRIVQDIFNYIYSMDENLEFHIKVSYFEIYLDKIRDLLDVSKTNLSVHEDKNRVPYVKGCTERFVCSPDEVMDTIDEGKSNRHVAVTNMNEHSSRSHSIFLINVKQENTQTEQKLSGKLYLVDLAGSEKVSKTGAEGAVLDEAKNINKSLSALGNVISALAEGSTYVPYRDSKMTRILQDSLGGNCRTTIVICCSPSSYNESETKSTLLFGQRAKTIKNTVCVNVELTAEQWKKKYEKEKEKNKILRNTIQWLENELNRWRNGETVPIDEQFDKEKANLEAFTVDKDITLTNDKPATAIGVIGNFTDAERRKCEEEIAKLYKQLDDKDEEINQQSQLVEKLKTQMLDQEELLASTRRDQDNMQAELNRLQAENDASKEEVKEVLQALEELAVNYDQKSQEVEDKTKEYELLSDELNQKSATLASIDAELQKLKEMTNHQKKRAAEMMASLLKDLAEIGIAVGNNDVKQPEGTGMIDEEFTVARLYISKMKSEVKTMVKRCKQLESTQTESNKKMEENEKELAACQLRISQHEAKIKSLTEYLQNVEQKKRQLEESVDALSEELVQLRAQEKVHEMEKEHLNKVQTANEVKQAVEQQIQSHRETHQKQISSLRDEVEAKAKLITDLQDQNQKMMLEQERLRVEHEKLKATDQEKSRKLHELTVMQDRREQARQDLKGLEETVAKELQTLHNLRKLFVQDLATRVKKSAEIDSDDTGGSAAQKQKISFLENNLEQLTKVHKQLVRDNADLRCELPKLEKRLRATAERVKALESALKEAKENASRDRKRYQQEVDRIKEAVRSKNMARRGHSAQIAKPIRPGQHPAASPTHPSAIRGGGAFVQNSQPVAVRGGGGKQV	–	–	0.7087	-0.1495
sp¦Q14C86¦GAPD1_HUMAN (protein, UniProt Q14C86 1-1478, looked up) GTPase-activating protein and …: MVKLDIHTLAHHLKQERLYVNSEKQLIQRLNADVLKTAEKLYRTAWIAKQQRINLDRLIITSAEASPAECCQHAKILEDTQFVDGYKQLGFQETAYGEFLSRLRENPRLIASSLVAGEKLNQENTQSVIYTVFTSLYGNCIMQEDESYLLQVLRYLIEFELKESDNPRRLLRRGTCAFSILFKLFSEGLFSAKLFLTATLHEPIMQLLVEDEDHLETDPNKLIERFSPSQQEKLFGEKGSDRFRQKVQEMVESNEAKLVALVNKFIGYLKQNTYCFPHSLRWIVSQMYKTLSCVDRLEVGEVRAMCTDLLLACFICPAVVNPEQYGIISDAPINEVARFNLMQVGRLLQQLAMTGSEEGDPRTKSSLGKFDKSCVAAFLDVVIGGRAVETPPLSSVNLLEGLSRTVVYITYSQLITLVNFMKSVMSGDQLREDRMALDNLLANLPPAKPGKSSSLEMTPYNTPQLSPATTPANKKNRLPIATRSRSRTNMLMDLHMDHEGSSQETIQEVQPEEVLVISLGTGPQLTPGMMSENEVLNMQLSDGGQGDVPVDENKLHGKPDKTLRFSLCSDNLEGISEGPSNRSNSVSSLDLEGESVSELGAGPSGSNGVEALQLLEHEQATTQDNLDDKLRKFEIRDMMGLTDDRDISETVSETWSTDVLGSDFDPNIDEDRLQEIAGAAAENMLGSLLCLPGSGSVLLDPCTGSTISETTSEAWSVEVLPSDSEAPDLKQEERLQELESCSGLGSTSDDTDVREVSSRPSTPGLSVVSGISATSEDIPNKIEDLRSECSSDFGGKDSVTSPDMDEITHGAHQLTSPPSQSESLLAMFDPLSSHEGASAVVRPKVHYARPSHPPPDPPILEGAVGGNEARLPNFGSHVLTPAEMEAFKQRHSYPERLVRSRSSDIVSSVRRPMSDPSWNRRPGNEERELPPAAAIGATSLVAAPHSSSSSPSKDSSRGETEERKDSDDEKSDRNRPWWRKRFVSAMPKAPIPFRKKEKQEKDKDDLGPDRFSTLTDDPSPRLSAQAQVAEDILDKYRNAIKRTSPSDGAMANYESTGDNHDRDLSSKLLYHSDKEVMGDGESAHDSPRDEALQNISADDLPDSASQAAHPQDSAFSYRDAKKKLRLALCSADSVAFPVLTHSTRNGLPDHTDPEDNEIVCFLKVQIAEAINLQDKNLMAQLQETMRCVCRFDNRTCRKLLASIAEDYRKRAPYIAYLTRCRQGLQTTQAHLERLLQRVLRDKEVANRYFTTVCVRLLLESKEKKIREFIQDFQKLTAADDKTAQVEDFLQFLYGAMAQDVIWQNASEEQLQDAQLAIERSVMNRIFKLAFYPNQDGDILRDQVLHEHIQRLSKVVTANHRALQIPEVYLREAPWPSAQSEIRTISAYKTPRDKVQCILRMCSTIMNLLSLANEDSVPGADDFVPVLVFVLIKANPPCLLSTVQYISSFYASCLSGEESYWWMQFTAAVEFIKTIDDRK	–	–	0.7165	-0.1448
sp¦O75533¦SF3B1_HUMAN (protein, UniProt O75533 1-1304, looked up) Splicing factor 3B subunit 1: MAKIAKTHEDIEAQIREIQGKKAALDEAQGVGLDSTGYYDQEIYGGSDSRFAGYVTSIAATELEDDDDDYSSSTSLLGQKKPGYHAPVALLNDIPQSTEQYDPFAEHRPPKIADREDEYKKHRRTMIISPERLDPFADGGKTPDPKMNARTYMDVMREQHLTKEEREIRQQLAEKAKAGELKVVNGAAASQPPSKRKRRWDQTADQTPGATPKKLSSWDQAETPGHTPSLRWDETPGRAKGSETPGATPGSKIWDPTPSHTPAGAATPGRGDTPGHATPGHGGATSSARKNRWDETPKTERDTPGHGSGWAETPRTDRGGDSIGETPTPGASKRKSRWDETPASQMGGSTPVLTPGKTPIGTPAMNMATPTPGHIMSMTPEQLQAWRWEREIDERNRPLSDEELDAMFPEGYKVLPPPAGYVPIRTPARKLTATPTPLGGMTGFHMQTEDRTMKSVNDQPSGNLPFLKPDDIQYFDKLLVDVDESTLSPEEQKERKIMKLLLKIKNGTPPMRKAALRQITDKAREFGAGPLFNQILPLLMSPTLEDQERHLLVKVIDRILYKLDDLVRPYVHKILVVIEPLLIDEDYYARVEGREIISNLAKAAGLATMISTMRPDIDNMDEYVRNTTARAFAVVASALGIPSLLPFLKAVCKSKKSWQARHTGIKIVQQIAILMGCAILPHLRSLVEIIEHGLVDEQQKVRTISALAIAALAEAATPYGIESFDSVLKPLWKGIRQHRGKGLAAFLKAIGYLIPLMDAEYANYYTREVMLILIREFQSPDEEMKKIVLKVVKQCCGTDGVEANYIKTEILPPFFKHFWQHRMALDRRNYRQLVDTTVELANKVGAAEIISRIVDDLKDEAEQYRKMVMETIEKIMGNLGAADIDHKLEEQLIDGILYAFQEQTTEDSVMLNGFGTVVNALGKRVKPYLPQICGTVLWRLNNKSAKVRQQAADLISRTAVVMKTCQEEKLMGHLGVVLYEYLGEEYPEVLGSILGALKAIVNVIGMHKMTPPIKDLLPRLTPILKNRHEKVQENCIDLVGRIADRGAEYVSAREWMRICFELLELLKAHKKAIRRATVNTFGYIAKAIGPHDVLATLLNNLKVQERQNRVCTTVAIAIVAETCSPFTVLPALMNEYRVPELNVQNGVLKSLSFLFEYIGEMGKDYIYAVTPLLEDALMDRDLVHRQTASAVVQHMSLGVYGFGCEDSLNHLLNYVWPNVFETSPHVIQAVMGALEGLRVAIGPCRMLQYCLQGLFHPARKVRDVYWKIYNSIYIGSQDALIAHYPRIYNDDKNTYIRYELDYIL	–	–	0.7121	-0.1475
sp¦Q9UFN0¦NPS3A_HUMAN (protein, UniProt Q9UFN0 1-247, looked up) Protein NipSnap homolog 3A: MLVLRSALTRALASRTLAPQMCSSFATGPRQYDGIFYEFRSYYLKPSKMNEFLENFEKNAHLRTAHSELVGYWSVEFGGRMNTVFHIWKYDNFAHRTEVRKALAKDKEWQEQFLIPNLALIDKQESEITYLVPWCKLEKPPKEGVYELATFQMKPGGPALWGDAFKRAVHAHVNLGYTKLVGVFHTEYGALNRVHVLWWNESADSRAAGRHKSHEDPRVVAAVRESVNYLVSQQNMLLIPTSFSPLK	–	–	0.7109	-0.1482
